Experimental findings from PMC11087256 are described below.

Experiment [1] addresses GST-EphA2 (UniProt P29317). Put plainly: ELISA; 200 ng GST-EphA2 coated on 96-well plates overnight at 4 °C, blocked with 5% BSA in PBS; gradient concentrations of 6×His proteins, 2 h at room temperature; anti-His or anti-GST antibody, HRP secondary, absorbance at 450 nm. A general note: An ELISA detects its analyte on a solid surface through an enzyme-linked reagent.
In experiment [2] the target is GST-EphA2 (UniProt P29317). The experiment is described as above. The source holds these as a separate data set.
Experiment [3] addresses GST-EphA2 (UniProt P29317). Put plainly: ELISA; as the ELISA on GST-EphA2-coated plates, gH/gL or gB incubated in the presence of IFITM1 (concentration of IFITM1 not stated).

Like-named read-outs stand apart in the source and are kept apart here.

Take “6×His-gH/gL (from UniProt P03231 19-706; P03212 23-137) (complex)”: the EC50 (commonly the concentration needed to bring the measured effect to its halfway point) was determined as 32 nM in experiment [1] and 33.5 nM in experiment [2]. The EC50 with IFITM1 in experiment [3] was 75.7 nM.
“soluble 6×His-IFITM1 fusion protein (sIFITM1) (from UniProt P13164 1-125) (natural protein)” displayed an EC50 in experiment [2] of 15.4 nM.
